Measured values reported in patent publication US20240218070A1 (MERUS N V, published 2024).

Legend:
[1] = target: T1, human TGF-βRII expressed on cells (human, UniProt P37173 23-567); experiment: cell-based or functional assay
[2] = target: T1, human TGF-βRII expressed on cells; experiment: cell-based or functional assay; remark: listed apart in the source

T1 sequence (P37173 23-567 limits assumed, form in doubt): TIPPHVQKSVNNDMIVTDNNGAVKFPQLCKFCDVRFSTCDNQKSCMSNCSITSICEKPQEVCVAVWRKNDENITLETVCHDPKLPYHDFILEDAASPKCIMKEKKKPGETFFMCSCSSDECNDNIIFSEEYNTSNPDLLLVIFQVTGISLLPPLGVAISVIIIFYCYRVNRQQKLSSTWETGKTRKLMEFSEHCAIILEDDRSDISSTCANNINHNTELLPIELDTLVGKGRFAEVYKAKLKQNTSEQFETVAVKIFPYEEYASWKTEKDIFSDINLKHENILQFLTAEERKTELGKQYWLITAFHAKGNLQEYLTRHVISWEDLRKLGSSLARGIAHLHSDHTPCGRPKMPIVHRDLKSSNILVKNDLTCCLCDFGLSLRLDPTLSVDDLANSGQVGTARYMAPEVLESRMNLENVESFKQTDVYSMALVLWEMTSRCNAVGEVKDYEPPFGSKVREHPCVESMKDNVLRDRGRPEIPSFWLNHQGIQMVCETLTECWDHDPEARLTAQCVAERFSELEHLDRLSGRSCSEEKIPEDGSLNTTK

IL-11 IC50, TGF-β1-stimulated primary colon CAFs [1]: 0.0526 µg/mL | pSMAD2 IC50, TGF-β1-stimulated primary colon CAFs [1]: 0.00929 ug/ml | Primary CAF IL-11 IC50, BLDA [2]: 1.04 µg/mL | Primary CAF IL-11 IC50, COAD(1) [2]: 1.22 µg/mL | Primary CAF IL-11 IC50, COAD(2) [2]: 0.313 µg/mL | Primary CAF IL-11 IC50, GBM [2]: 0.264 µg/mL | Primary CAF IL-11 IC50, HNSC [2]: 20.2 µg/mL | Primary CAF IL-11 IC50, LUAD [2]: 0.765 µg/mL | Primary CAF IL-11 IC50, LUSC [2]: 0.085 µg/mL | Primary CAF IL-11 IC50, MEL [2]: 0.588 µg/mL | Primary CAF IL-11 IC50, OV [2]: 0.191 µg/mL | Primary CAF IL-11 IC50, PAAD [2]: 0.38 µg/mL | Primary CAF pSMAD IC50, BLDA [2]: 0.087 ug/ml | Primary CAF pSMAD IC50, COAD(1) [2]: 0.081 ug/ml | Primary CAF pSMAD IC50, COAD(2) [2]: 0.023 ug/ml | Primary CAF pSMAD IC50, GBM [2]: 0.048 ug/ml | Primary CAF pSMAD IC50, HNSC [2]: 0.714 ug/ml | Primary CAF pSMAD IC50, LUAD [2]: 0.078 ug/ml | Primary CAF pSMAD IC50, LUSC [2]: 0.125 ug/ml | Primary CAF pSMAD IC50, MEL [2]: 0.117 ug/ml | Primary CAF pSMAD IC50, OV [2]: 0.188 ug/ml | Primary CAF pSMAD IC50, PAAD [2]: 0.126 ug/ml
B1: Analog reference TGF-βRII antibody TGF1 (antibody, human IgG1, kappa, V domains shown)
VH: QLQVQESGPGLVKPSETLSLTCTVSGGSISNSYFSWGWIRQPPGKGLEWIGSFYYGEKTYYNPSLKSRATISIDTSKSQFSLKLSSVTAADTAVYYCPRGPTMIRGVIDSWGQGTLVTVSS
VL: EIVLTQSPATLSLSPGERATLSCRASQSVRSYLAWYQQKPGQAPRLLIYDASNRATGIPARFSGSGSGTDFTLTISSLEPEDFAVYYCQQRSNWPPTFGQGTKVEIKR
